Like-named read-outs stand apart in the source and are kept apart here. Where a SMILES comes first, the peptide text is derived from it. Where no end group is shown, it is not given here. Side-chain parts run from the residue outwards. [ ]: non-standard residue; d: D form. The star is where a group is joined. DOTA = O=C(O)CN1CCN(CC(=O)O)CCN(CC(=O)*)CCN(CC(=O)O)CC1; hArg = N=C(N)NCCCC[C@H](N)C(=O)O; Dab = NCC[C@H](N)C(=O)O; Ahx = NCCCCCC(=O)O
Key:
VEGF-A165/NRP-1 complex = settings: read-out: IC50 (VEGF-A165 binding with NRP-1); cited from earlier work
[1] = type: in vitro ADME; settings: human, serum
Protocol: Stability studies of the ^68Ga-1, ^177Lu-1, ^68Ga-2, and ^177Lu-2 radioconjugates in human serum (HS) were performed according to the following procedure: into a vial containing 900 µL of HS we added 100 µL of the tested radioconjugate and incubated the mixture at 37 °C. After the specified incubation times (10 min–4.5 h for ^68Ga-radiocompounds and 10 min–4 days for ^177Lu-radiocompounds), we withdrew the aliquots, mixed with ethanol to precipitate the proteins, and centrifuged (14,000 rpm, 5–15 min) to separate the protein compounds from the supernatant. The gamma radioactivity of the obtained precipitate and supernatant was then measured using a Wizard detector. Using the formula below, the amount of radioconjugate remaining in the supernatant (and also bound by serum protein components) was calculated. ∑ liquid phase radioactivity/∑ liquid phase radioactivity+∑ percipitate radioactivity ×100% We also analyzed the supernatant at each time by RP-HPLC in System 3 with gamma detection for ^68Ga-1 and ^177Lu-1 and System 4 with gamma detection for ^68Ga-2 and ^177Lu-2 to check whether the studied radiocompound remained unchanged during the experiment.

[2] = type: physicochemical; settings: pH 7.4
Protocol: The lipophilicity (L) of tested radiocompounds, defined as the decimal logarithm (logP) of the partition coefficient (P) of the compound between the two immiscible phases, was determined in the system PBS solution (aqueous phase, polar phase, pH 7.4) and n-octanol (organic, non-polar phase) according to the following formula: L=logP=logAo/Aw where Ao —organic phase radioactivity; Aw —aqueous phase radioactivity. Radioactivity of both phases, resulting from the concentration of the tested radiocompound in each of them, was determined by measuring the gamma radiation with a Wizard counter in three independent experiments. Before starting the research, both liquid phases were saturated with each other to avoid errors resulting from the mutual solubility of both liquids. The partition coefficient (P) result is shown as the mean ± SD. After the end of the experiment, we performed RP-HPLC analysis of the aqueous phase to confirm the tested radioconjugate remained intact during the experiment.

[3] = cited from earlier work

ATWLPPR [A7R]
IC50 (VEGF-A165/NRP-1 complex): 5.9 µM

N=C(N)NCCCC[C@H](N)C(=O)NCCCC[C@H](N)C(=O)N[C@@H](CCNC(=O)CCCCCNC(=O)CN1CCN(CC(=O)O)CCN(CC(=O)O)CCN(CC(=O)O)CC1)C(=O)N1CCC[C@H]1C(=O)N[C@@H](CCCNC(=N)N)C(=O)O [^177Lu-2, [^177Lu]Lys(hArg)-Dab(Ahx-DOTA-Lu)-Pro-Arg, metal not drawn] (H-K(hArg)[Dab]([Ahx-DOTA])PR-OH)
radioconjugate remaining in HS sample (in words) ([1]; 24 h): only traces of radioconjugate were present | logP ± SD [2]: −3.75 ± 0.08

CC(C)C[C@H](NC(=O)[C@H](Cc1c[nH]c2ccccc12)NC(=O)[C@@H](NC(=O)[C@H](C)NC(=O)CCCCCNC(=O)CN1CCN(CC(=O)O)CCN(CC(=O)O)CCN(CC(=O)O)CC1)[C@@H](C)O)C(=O)N1CCC[C@H]1C(=O)N1CCC[C@H]1C(=O)N[C@@H](CCCNC(=N)N)C(=O)O [^177Lu-1, [^177Lu]Lu-DOTA-Ahx-A7R, metal not drawn] ({DOTA-Ahx}-ATWLPPR-OH)
radioconjugate remaining in HS sample (in words) ([1]; 96 h): still visible | logP ± SD [2]: −3.40 ± 0.14

N=C(N)NCCCC[C@H](N)C(=O)NCCCC[C@H](N)C(=O)N[C@@H](CCNC(=O)CCCCCNC(=O)CN1CCN(CC(=O)O)CCN(CC(=O)O)CCN(CC(=O)O)CC1)C(=O)N1CCC[C@H]1C(=O)N[C@@H](CCCNC(=N)N)C(=O)O [^68Ga-2, [^68Ga]Lys(hArg)-Dab(Ahx-DOTA-Ga)-Pro-Arg, metal not drawn] (H-K(hArg)[Dab]([Ahx-DOTA])PR-OH)
logP ± SD [2]: −4.57 ± 0.05

CC(C)C[C@H](NC(=O)[C@H](Cc1c[nH]c2ccccc12)NC(=O)[C@@H](NC(=O)[C@H](C)NC(=O)CCCCCNC(=O)CN1CCN(CC(=O)O)CCN(CC(=O)O)CCN(CC(=O)O)CC1)[C@@H](C)O)C(=O)N1CCC[C@H]1C(=O)N1CCC[C@H]1C(=O)N[C@@H](CCCNC(=N)N)C(=O)O [^68Ga-1, [^68Ga]Ga-DOTA-Ahx-A7R, metal not drawn] ({DOTA-Ahx}-ATWLPPR-OH)
logP ± SD [2]: −3.92 ± 0.03

Lys(hArg)-Dab-Pro-Arg
stability half-life in human serum [3]: ~48 h | half-life ([3]; peptidomimetic concentration 0.9 µmol/mL, UV/VIS detection): 41 h | IC50 (VEGF-A165/NRP-1 complex): 0.2 µM
